Reference: patent publication US12194082B2, “Compositions and methods for treatment of homocystinuria” (THE REGENTS OF THE UNIVERSITY OF COLORADO, priority 2016, dated 2025)
Where two headings read alike, the source gives them in different places.

Key:
[1] = Pharmacokinetics of PEGylated htCBS C15S in HO mice (plasma CBS activity); assay type: in vivo
Protocol: For 20NHS PEG-htCBS C15S, HO mice were administered SQ a dose of 5, 10 or 15 mg/kg dose or were administered IV a dose of 10 mg/kg. For 400MA-htCBS C15S, HO mice received a single dose of 10 mg/kg either SC or IV of one of the three forms: (i) a mixture of all species, where no separation of individual forms has been attempted (mix), (ii) a homoPEGylated specie (Peak 1), and (iii) a hetero/hemiPEGylated species (Peak 2).
Both male and female HO mice were used in this example, and each group contained 3 to 4 mice. Two groups of mice designated “A” and “B” were used for each route of administration to minimize the blood volume taken from any one mouse. For SC administration, blood was collected from group A at 0.5, 3, 24, and 72 hours post-injection and from group B at 1, 6, 48, and 96 hours post-injection. For IV administration, blood was collected from group A at 0.25, 1, 6, and 48 hours post-injection and from group B at 0.5, 3, 24, and 72 hours post-injection.

Hcy, Cth, Cys = assay: Plasma metabolites in I278T mice of the eye study; assay type: in vivo; conditions: 7.5 mg/kg SC 3x/week
Protocol: The changes in metabolite levels in plasma were measured in I278T (+/−) healthy heterozygous control mice, untreated −/− affected homozygous control mice, and 20NHS PEG-htCBS C15S-treated −/− homozygous I278T mice. The 20NHS PEG-htCBS C15S (C15S/ME-200GS)-treated mice were administered 7.5 mg/kg subcutaneously (SC) 3 times per week from the age of 2 days up to the age of 4 months. Levels measured beginning at 72 hours after the injection as mice were on the treatment from 2 days of age.

[2] = Radiometric CBS activity assay of monkey plasma samples; assay type: in vivo, cynomolgus monkey
Text: Tables 12-14 below show the comparison of C15S/ME-200GS specific activity determined by LC/MS/MS using D,L-homocysteine M+4 as a substrate and by radiometric assay using L-[…] as a substrate. The enzyme's specific activity is presented in mU/μl. The “n.d.” stands for “not determined”.

[3] = cynomolgus monkey, in vivo
Protocol: The pharmacokinetic (PK) parameters were calculated using a non-compartmental curve stripping model which resolves a curve into a series of exponential terms corresponding to the absorption, distribution and elimination phases occurring during the time course of the enzyme in the blood. The curve stripping approach assumes that the disposition phases of the drug follow apparent first-order kinetics, which is evidenced by the linearity in the terminal portion of a semi-log plot. These calculations were made using a modeling program called PK Solutions 2.0 (Summit Solutions, Montrose, CO) using the mean plasma enzyme activity for each route of administration. The bioavailability was calculated by dividing the area under the curve (AUC) for the SC or IP route by the AUC observed after IV administration.
For the single dose PK study, three experimental groups of 4 (n=2M+2F) monkeys each were used to conduct the experiments. The first group received 2 mg/kg 20NHS PEG-htCBS C15S via IV injection. Blood was collected at 0, 0.083, 0.16, 0.25, 0.5, 1, 2, 4, 8, 24, 72, 120, and 192 hours post IV injection. The second and third groups received either 2 mg/kg or 6 mg/kg 20NHS PEG-htCBS C15S via SC injection. Blood was collected at 0, 1, 2, 4, 8, 24, 48, 72, 96, 120, 192, 240, and 336 hours post SC injection.

[4] = system: I278T −/− homozygous mice; assay: Facial alopecia in I278T mice; assay type: in vivo, mouse; conditions: 3 times per week, start W24-W28, up to about 1 year
Protocol: 3 W old mice not showing any signs of facial alopecia were split into 2 groups. The first group (n=3 males) was injected with 7.5 mg/kg three times per week with 200MA0B PEG-htCBS C15S for a period of 6 weeks. Physical look was recorded before the experiment and monitored weekly, then bi-weekly after the 6 W injection regimen. Metabolite levels were checked before the experiment and 24 hours after the last injection, i.e. after the 6 W injection regimen.
The second group (n=3; 2 males, 1 female) was continuously injected with 7.5 mg/kg of 200MA0B PEG-htCBS C15S administered subcutaneously from 3 W of age until 41 weeks of age. Weight was initially monitored weekly. Physical look was recorded before the experiment and was monitored weekly or bi-weekly after the initial 6 W injection regimen. Metabolite levels were checked before the experiment and 24 hours after the last injection of initial 6 W injection regiment and then followed weekly or bi-weekly.
The I278T mice, which were at least 120D (W17) old and had visible, fully developed facial alopecia, were split into 2 groups. […] Metabolite levels were determined prior to the treatment initiation and measured during the study 24 hours after the injection, and weight and physical look were initially monitored weekly, and later bi-weekly.

## 20NHS PEG-htCBS C15S: htCBS C15S PEGylated with ME-200GS PEG (20 kDa linear NHS ester-activated PEG)
[1]; 10 mg/kg IV
  E Half-life: 47.6 ± 14.6 h
[1]; mouse, in vivo
  average circulating time of a single enzyme molecule (MRT): 44 to 194 h
[1]; mouse, in vivo, iv, 10 mg/kg
  AUC(0-t) (obs area): 7431 ± 154 mU-hr/μL
  CL (obs area): 1346 ± 27.3 µL/h
  MRT (area): 52 ± 13 h
  cmax (obs): 371.6 ± 11.2 mU/μL
[1]; mouse, in vivo, sc
  AUC/dose: 612 (mU-h/mL)/(mg/kg)
  T1/2: 20 h
  absorption half-life: 5 to 12 h
  bioavailability in HO mice: 52-83%
  cmax/dose: 10 (mU/μL)/(mg/kg)
  tmax: 24 h
[1]; mouse, in vivo, sc, 5 mg/kg
  A Half-life: 5.3 ± 1.1 h
  AUC in mice: 3060 mU−h/mL
  CL (obs area): 1636 ± 86 µL/h
  E Half-life: 137 ± 95 h
  MRT (area): 194 ± 128 h
  cmax/dose: 10.3
[1]; mouse, in vivo, sc, 10 mg/kg
  A Half-life: 12.7 ± 0.6 h
  Bioavailability: 64.6%
  CL (obs area): 2113 ± 280 µL/h
  E Half-life: 17.5 ± 1.27 h
  MRT (area): 44.8 ± 1.7 h
  cmax (obs): 89.9 ± 10.2 mU/μL
  cmax/dose: 9.0
[1]; mouse, in vivo, sc, 15 mg/kg
  A Half-life: 11.9 ± 1.2 h
  Bioavailability: 51.6%
  CL (obs area): 2609 ± 72 µL/h
  E Half-life: 22.0 ± 1.7 h
  MRT (area): 49.0 ± 1.4 h
  cmax (obs): 104.2 ± 11.3 mU/μL
  cmax/dose: 6.9
  half-life determinations in the SC dose groups: 17.5 to 137 h
Hcy, Cth, Cys; throughout the study
  plasma Cth: around 50 μM
  plasma Cys: around 230 μM
Hcy, Cth, Cys; decreased from 230 μM
  plasma Hcy: about 70 μM
[2]; single IV 2 mg/kg, 0.083 h
  specific activity in plasma, Radiometric assay: 95.741 mU/μl
[2]; single IV 2 mg/kg, 0.167 h
  specific activity in plasma, Radiometric assay: 90.049 mU/μl
[2]; single IV 2 mg/kg, 0.25 h
  specific activity in plasma, Radiometric assay: 88.891 mU/μl
[2]; single IV 2 mg/kg, 0.5 h
  specific activity in plasma, Radiometric assay: 85.342 mU/μl
[2]; single IV 2 mg/kg, 1 h
  specific activity in plasma, Radiometric assay: 80.992 mU/μl
[2]; single IV 2 mg/kg, 2 h
  specific activity in plasma, Radiometric assay: 78.984 mU/μl
[2]; single IV 2 mg/kg, 4 h
  specific activity in plasma, Radiometric assay: 77.809 mU/μl
[2]; single IV 2 mg/kg, 8 h
  specific activity in plasma, Radiometric assay: 70.357 mU/μl
[2]; single IV 2 mg/kg, 24 h
  specific activity in plasma, Radiometric assay: 55.865 mU/μl
[2]; single IV 2 mg/kg, 72 h
  specific activity in plasma, Radiometric assay: 31.601 mU/μl
[2]; single IV 2 mg/kg, 120 h
  specific activity in plasma, Radiometric assay: 18.908 mU/μl
[2]; single IV 2 mg/kg, 192 h
  specific activity in plasma, Radiometric assay: 9.182 mU/μl
[2]; single SC 2 mg/kg, 1 h
  specific activity in plasma, Radiometric assay: 2.842 mU/μl
[2]; single SC 2 mg/kg, 2 h
  specific activity in plasma, Radiometric assay: 5.801 mU/μl
[2]; single SC 2 mg/kg, 4 h
  specific activity in plasma, Radiometric assay: 11.207 mU/μl
[2]; single SC 2 mg/kg, 8 h
  specific activity in plasma, Radiometric assay: 22.164 mU/μl
[2]; single SC 2 mg/kg, 24 h
  specific activity in plasma, Radiometric assay: 40.293 mU/μl
[2]; single SC 2 mg/kg, 48 h
  specific activity in plasma, Radiometric assay: 36.658 mU/μl
[2]; single SC 2 mg/kg, 72 h
  specific activity in plasma, Radiometric assay: 30.670 mU/μl
[2]; single SC 2 mg/kg, 96 h
  specific activity in plasma, Radiometric assay: 23.536 mU/μl
[2]; single SC 2 mg/kg, 120 h
  specific activity in plasma, Radiometric assay: 18.608 mU/μl
[2]; single SC 2 mg/kg, 192 h
  specific activity in plasma, Radiometric assay: 9.496 mU/μl
[2]; single SC 2 mg/kg, 240 h
  specific activity in plasma, Radiometric assay: 5.963 mU/μl
[2]; single SC 2 mg/kg, 336 h
  specific activity in plasma, Radiometric assay: 2.441 mU/μl
[2]; single SC 6 mg/kg, 1 h
  specific activity in plasma, Radiometric assay: 3.739 mU/μl
[2]; single SC 6 mg/kg, 2 h
  specific activity in plasma, Radiometric assay: 9.180 mU/μl
[2]; single SC 6 mg/kg, 4 h
  specific activity in plasma, Radiometric assay: 22.263 mU/μl
[2]; single SC 6 mg/kg, 8 h
  specific activity in plasma, Radiometric assay: 50.194 mU/μl
[2]; single SC 6 mg/kg, 24 h
  specific activity in plasma, Radiometric assay: 111.081 mU/μl
[2]; single SC 6 mg/kg, 48 h
  specific activity in plasma, Radiometric assay: 109.292 mU/μl
[2]; single SC 6 mg/kg, 72 h
  specific activity in plasma, Radiometric assay: 95.722 mU/μl
[2]; single SC 6 mg/kg, 96 h
  specific activity in plasma, Radiometric assay: 73.072 mU/μl
[2]; single SC 6 mg/kg, 120 h
  specific activity in plasma, Radiometric assay: 56.427 mU/μl
[2]; single SC 6 mg/kg, 192 h
  specific activity in plasma, Radiometric assay: 31.513 mU/μl
[2]; single SC 6 mg/kg, 240 h
  specific activity in plasma, Radiometric assay: 19.203 mU/μl
[2]; single SC 6 mg/kg, 336 h
  specific activity in plasma, Radiometric assay: 5.807 mU/μl
[3]; iv, 2 mg/kg
  AUC0-t/dose: 2971 ± 78 mU-h/μl/(mg/kg)
[3]; sc
  AUC/dose: 2744 (mU-h/mL)/(mg/kg)
  cmax/dose: 20 (mU/μL)/(mg/kg)
  elimination half-life (T1/2): 73 h
[3]; sc, 2 mg/kg
  AUC0-t/dose: 2761 ± 160 mU-h/μl/(mg/kg)
  cmax/dose: 20.4 ± 1.0 mU/μl/(mg/kg)
  t1/2-A: 7.9 ± 1.0 h
  t1/2-E: 72.9 ± 1.1 h
[3]; sc, 6 mg/kg
  AUC0-t/dose: 2727 ± 119 mU-h/μl/(mg/kg)
  cmax/dose: 19.2 ± 1.3 mU/μl/(mg/kg)
  t1/2-A: 9.7 ± 1.0 h
  t1/2-E: 72.8 ± 1.7 h
[4]
  animals responding (reversal of fully developed facial alopecia): 4 out of 4
